# Measured values as given in paper PMC5679609 (PLoS ONE, 2017).
# B1: Ser179Glu SDC4 (phosphomimetic), with GFP in the extracellular domain (natural protein, human, UniProt P31431 19-198, looked up)
# chain: ESIRETEVIDPQDLLEGRYFSGALPDDEDVVGPGQESDDFELSGSGDLDDLEDSMIGPEVVHPLVPLDNHIPERAGSGSQVPTEPKKLEENEVIPKRISPVEESEDVSNKVSMSSTVQGSNIFERTEVLAALIVGGIVGILFAVFLILLLMYRMKKKDEGEYDLGKKPIYKKAPTNEFYA
# notes: syndecan-4 (SDC4), human, GenBank CAG46871.1; GFP inserted into the extracellular domain at position 131; also called phosphomimetic SDC4; source: MCF-7, stably transfected, in lysate; not shown: GFP, internal (at position 131), kept
# Biological target: T1, Tiam1 (human (endogenous in MCF-7), UniProt Q13009 1-1591)
# T1 construct: also called Rac1-GEF; source: endogenous, MCF-7 lysate
# Assay: co-IP; anti-Tiam1 antibody, lysates of nt MCF-7 and of the lines that stably express the SDC4 constructs; Mg2+-lysis buffer (25 mM HEPES pH 7.5, 150 mM NaCl, 1% Igepal CA-630, 5 mM MgCl2, 1 mM EDTA, 2% glycerol); blot with anti-GFP-HRP or anti-Rac1
# Details: partners not purified
# T1 sequence (Q13009 whole entry): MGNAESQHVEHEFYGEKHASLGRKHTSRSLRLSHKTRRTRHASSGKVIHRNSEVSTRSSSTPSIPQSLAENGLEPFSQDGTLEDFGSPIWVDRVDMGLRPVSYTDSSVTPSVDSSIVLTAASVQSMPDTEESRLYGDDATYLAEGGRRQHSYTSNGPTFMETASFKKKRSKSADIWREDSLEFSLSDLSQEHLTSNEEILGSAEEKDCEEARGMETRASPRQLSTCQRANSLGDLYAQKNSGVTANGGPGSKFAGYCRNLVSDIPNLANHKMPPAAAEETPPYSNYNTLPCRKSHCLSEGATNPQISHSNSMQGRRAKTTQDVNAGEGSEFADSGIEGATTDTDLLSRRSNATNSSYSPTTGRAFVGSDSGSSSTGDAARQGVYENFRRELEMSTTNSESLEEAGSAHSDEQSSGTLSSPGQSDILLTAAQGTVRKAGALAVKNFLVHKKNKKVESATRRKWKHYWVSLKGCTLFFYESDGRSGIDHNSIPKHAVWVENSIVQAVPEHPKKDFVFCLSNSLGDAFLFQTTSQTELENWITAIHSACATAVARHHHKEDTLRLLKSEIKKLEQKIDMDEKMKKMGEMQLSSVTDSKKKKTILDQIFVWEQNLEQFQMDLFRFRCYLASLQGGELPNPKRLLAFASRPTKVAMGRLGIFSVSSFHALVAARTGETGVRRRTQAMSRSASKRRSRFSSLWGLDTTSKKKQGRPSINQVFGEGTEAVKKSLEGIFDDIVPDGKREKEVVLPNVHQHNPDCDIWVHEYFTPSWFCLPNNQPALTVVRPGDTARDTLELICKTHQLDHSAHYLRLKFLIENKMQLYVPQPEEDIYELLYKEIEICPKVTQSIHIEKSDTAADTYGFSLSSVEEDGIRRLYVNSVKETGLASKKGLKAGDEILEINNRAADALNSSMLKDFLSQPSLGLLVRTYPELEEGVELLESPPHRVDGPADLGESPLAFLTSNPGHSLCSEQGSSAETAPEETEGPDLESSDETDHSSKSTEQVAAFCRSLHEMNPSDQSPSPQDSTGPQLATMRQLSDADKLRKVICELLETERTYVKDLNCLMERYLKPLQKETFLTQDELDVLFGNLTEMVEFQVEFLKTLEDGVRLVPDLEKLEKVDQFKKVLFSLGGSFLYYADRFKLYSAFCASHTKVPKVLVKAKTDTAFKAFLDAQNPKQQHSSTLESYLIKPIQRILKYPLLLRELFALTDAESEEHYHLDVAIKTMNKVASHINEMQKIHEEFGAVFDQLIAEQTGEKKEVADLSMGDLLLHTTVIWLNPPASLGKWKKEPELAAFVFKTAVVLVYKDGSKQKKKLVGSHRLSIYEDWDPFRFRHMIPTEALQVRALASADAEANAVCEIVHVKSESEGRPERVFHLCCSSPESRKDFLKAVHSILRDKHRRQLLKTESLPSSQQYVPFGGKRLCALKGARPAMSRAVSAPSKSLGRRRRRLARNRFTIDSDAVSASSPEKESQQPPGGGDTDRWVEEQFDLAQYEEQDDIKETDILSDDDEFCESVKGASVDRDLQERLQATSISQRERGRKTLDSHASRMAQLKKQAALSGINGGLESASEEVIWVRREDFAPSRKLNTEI
binder,measurement,value
B1,fold binding against the non-phosphorylated SDC4,~10 fold
